Test results published in US20040265809A1 (published 2004).

Molecular target: T1, rat RORβ ligand-binding domain (RORβ-LBD), residues 201-452, polyhistidine-tagged (rat, UniProt P45446 212-463)
T1 construct: Expressed in E. coli; The ligand pocket holds stearic acid (first crystal) or all-trans retinoic acid (second crystal); One monomer per asymmetric unit; also called rRORβ-LBD; RORbeta LBD; not shown: N-terminal polyhistidine tag and thrombin cleavage site from the pet15b vector (Novagen); the tagge
T1 sequence: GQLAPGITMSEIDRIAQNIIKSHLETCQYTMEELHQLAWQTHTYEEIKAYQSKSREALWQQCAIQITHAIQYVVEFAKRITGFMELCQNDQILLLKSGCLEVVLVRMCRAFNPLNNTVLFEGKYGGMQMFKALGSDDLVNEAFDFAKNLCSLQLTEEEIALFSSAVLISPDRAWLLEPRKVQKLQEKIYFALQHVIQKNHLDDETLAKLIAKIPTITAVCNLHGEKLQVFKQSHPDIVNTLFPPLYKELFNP
Test: co-crystallisation, hanging drop, stearate complex
Protocol: The RORβ-LBD stearate complex was crystallized at 22° C. by vapor diffusion in the hanging-drop mode. In the crystallisation trials, the protein was used without further purification and co-crystallized with a 3-molar excess of SRC-1⁶⁸⁶⁻⁷⁰⁰([…]) NR-interacting peptide co-activator sequence. Addition of the peptide was crucial to obtain crystals. In the initial trial to obtain crystallization conditions, a sparse matrix crystallization screen was done with a home screen. For each crystallization trial, a 4 μl drop was prepared by mixing 2 μl of purified protein (5.8 mg/ml) with an equal volume of reservoir solution. The reservoir contained 500 μl of the precipitating solution. A crystal measuring […] at 22° C. in PEG 6000 15% and 100 mM Tris HCl at pH=8.0 grew within about 2 weeks. This crystal was used in a first data collection run (as described below).

RHKILHRLLQEGSPS (also called SRC1 peptide) [SRC-1 686-700 NR-interacting co-activator peptide]
binding result: binds
